Test results taken from paper PMC7001106, “Lipid Interactions of a Ciliary Membrane TRP Channel: Simulation and Structural Studies of Polycystin-2” (Structure(London, England:1993), 2020).

Biological target: the molecule itself
Assay: cryo-EM structure; purified PC2 185-723 in UDM detergent, incubated overnight at 4°C with 18:0-20:4 PI(4,5)P2 (1:20, tetramer:lipid) or 18:1 PI(3,5)P2 (1:40); C4 symmetry imposed in the reconstruction

B1: Polycystin-2, truncated construct hPC2: Pro185 - Asp723 (domain or fragment, human, UniProt Q13563 185-723, looked up)
chain: PRVAWAERLVRGLRGLWGTRLMEESSTNREKYLKSVLRELVTYLLFLIVLCILTYGMMSSNVYYYTRMMSQLFLDTPVSKTEKTNFKTLSSMEDFWKFTEGSLLDGLYWKMQPSNQTEADNRSFIFYENLLLGVPRIRQLRVRNGSCSIPQDLRDEIKECYDVYSVSSEDRAPFGPRNGTAWIYTSEKDLNGSSHWGIIATYSGAGYYLDLSRTREETAAQVASLKKNVWLDRGTRATFIDFSVYNANINLFCVVRLLVEFPATGGVIPSWQFQPLKLIRYVTTFDFFLAACEIIFCFFIFYYVVEEILEIRIHKLHYFRSFWNCLDVVIVVLSVVAIGINIYRTSNVEVLLQFLEDQNTFPNFEHLAYWQIQFNNIAAVTVFFVWIKLFKFINFNRTMSQLSTTMSRCAKDLFGFAIMFFIIFLAYAQLAYLVFGTQVDDFSTFQECIFTQFRIILGDINFAEIEEANRVLGPIYFTTFVFFMFFILLNMFLAIINDTYSEVKSDLAQQKAEMELSDLIRKGYHKALVKLKLKKNTVD
notes: Polycystin-2 (PC2, PKD2, TRPP1), human, residues Pro185 to Asp723; For cryo-EM the protein was treated with alpha-L-fucosidase, PNGase F and TEV protease (the tag stands after a TEV site); The forward primer carries an ATG before the Pro185 codon; Homo-tetramer; also called PKD2; TRPP1; not shown: His10, C-terminal, cleaved; FLAG, C-terminal, cleaved
- stoichiometry N: 4
